Source: US20210322564A1 (ADC THERAPEUTICS, published 2021)

Target: T1, CD19 (human, UniProt P15391 20-556)
T1 sequence (looked up): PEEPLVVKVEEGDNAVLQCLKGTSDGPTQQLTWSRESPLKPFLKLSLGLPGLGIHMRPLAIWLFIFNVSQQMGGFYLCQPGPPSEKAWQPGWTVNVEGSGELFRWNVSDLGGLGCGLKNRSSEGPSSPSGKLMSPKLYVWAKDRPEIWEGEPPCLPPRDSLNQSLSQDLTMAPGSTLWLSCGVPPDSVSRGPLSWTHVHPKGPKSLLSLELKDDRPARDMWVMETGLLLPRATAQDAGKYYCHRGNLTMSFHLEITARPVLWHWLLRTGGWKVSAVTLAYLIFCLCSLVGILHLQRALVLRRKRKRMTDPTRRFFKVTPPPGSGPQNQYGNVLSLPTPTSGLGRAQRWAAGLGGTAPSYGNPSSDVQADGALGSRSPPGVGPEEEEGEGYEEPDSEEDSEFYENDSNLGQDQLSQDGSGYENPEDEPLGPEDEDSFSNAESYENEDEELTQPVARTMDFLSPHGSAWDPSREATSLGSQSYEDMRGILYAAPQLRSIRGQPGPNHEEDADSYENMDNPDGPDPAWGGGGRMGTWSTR
Test: cell-based or functional assay

B1: ADCx19 (antibody, V domains shown)
VH: QVQLVQPGAEVVKPGASVKLSCKTSGYTFTSNWMHWVKQAPGQGLEWIGEIDPSDSYTNYNQNFQGKAKLTVDKSTSTAYMEVSSLRSDDTAVYYCARGSNPYYYAMDYWGQGTSVTVS
VL: EIVLTQSPAIMSASPGERVTMTCSASSGVNYMHWYQQKPGTSPRRWIYDTSKLASGVPARFSGSGSGTSYSLTISSMEPEDAATYYCHQRGSYTFGGGTKLEIK
modifications: pyrrolobenzodiazepine (PBD) dimer warhead attached via a cleavable linker, DAR 2+/-0.3; attachment residues not stated
IC50, MTT proliferation assay, 96 h exposure, median over 48 B-cell lymphoma cell lines: 4 pM
